Measured values published in patent publication US20140120095A1 (Boehringer Ingelheim, published 2014).

T1: human DLL1 (human, UniProt O00548 18-545, limits assumed)
T1 construct: also called hDLL1
T1 sequence (looked up): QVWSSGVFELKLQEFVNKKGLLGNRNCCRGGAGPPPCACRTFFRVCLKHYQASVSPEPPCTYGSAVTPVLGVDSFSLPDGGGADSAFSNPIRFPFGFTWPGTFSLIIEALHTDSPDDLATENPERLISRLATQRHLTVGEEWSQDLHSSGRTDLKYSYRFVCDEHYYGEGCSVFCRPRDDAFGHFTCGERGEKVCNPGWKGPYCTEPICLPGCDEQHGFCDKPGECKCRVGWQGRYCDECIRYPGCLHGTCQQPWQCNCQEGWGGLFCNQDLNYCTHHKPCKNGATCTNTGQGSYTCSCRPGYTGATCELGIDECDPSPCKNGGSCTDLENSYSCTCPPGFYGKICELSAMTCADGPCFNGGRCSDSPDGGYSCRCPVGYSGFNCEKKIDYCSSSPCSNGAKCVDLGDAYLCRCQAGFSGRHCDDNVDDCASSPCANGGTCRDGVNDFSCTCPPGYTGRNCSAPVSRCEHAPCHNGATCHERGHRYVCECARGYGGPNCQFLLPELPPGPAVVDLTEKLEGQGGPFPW


Legend:
[1] = target: T2, recombinant human DLL4 (human, UniProt Q9NR61 25-522); assay: binding ELISA, coated rhDLL4
T2 construct: also called rhDLL4; hDLL4
Procedure: (§1) In order to determine cross-reactivity to mouse DII4 a binding ELISA is performed. […] Wells are blocked with a casein solution (1% in PBS). VHHs are applied as dilution series and binding is detected using a mouse anti-myc (Roche) and an anti-mouse-AP conjugate (Sigma, St Louis, Mo., USA) (FIG. 7 A-H). As reference, binding to human DII4 is measured.

[2] = target: T2, recombinant human DLL4; assay: hDLL4 ELISA screen, periplasmic extract
[3] = target: T2, recombinant human DLL4; assay: competition AlphaScreen, biot-hDLL4/hNotch1-Fc
Procedure: In brief, 1 nM biotinylated human DII4 is captured on streptavidin-coated donor beads (20 μg/mL), while 0.4 nM of the receptor human Notch1 (as a Fc fusion protein) is captured on anti-human Fc VHH-coated acceptor beads (20 μg/mL). Both loaded beads are incubated together with a dilution range of the competing VHH (FIG. 4 A-E).

[4] = target: T3, recombinant mouse DLL4 (mouse, UniProt Q9JI71 27-532); assay: binding ELISA on coated recombinant mouse DLL4, OD 405 nm
T3 construct: extracellular domain; also called rmDLL4; mDLL4
T3 sequence (Q9JI71 27-532): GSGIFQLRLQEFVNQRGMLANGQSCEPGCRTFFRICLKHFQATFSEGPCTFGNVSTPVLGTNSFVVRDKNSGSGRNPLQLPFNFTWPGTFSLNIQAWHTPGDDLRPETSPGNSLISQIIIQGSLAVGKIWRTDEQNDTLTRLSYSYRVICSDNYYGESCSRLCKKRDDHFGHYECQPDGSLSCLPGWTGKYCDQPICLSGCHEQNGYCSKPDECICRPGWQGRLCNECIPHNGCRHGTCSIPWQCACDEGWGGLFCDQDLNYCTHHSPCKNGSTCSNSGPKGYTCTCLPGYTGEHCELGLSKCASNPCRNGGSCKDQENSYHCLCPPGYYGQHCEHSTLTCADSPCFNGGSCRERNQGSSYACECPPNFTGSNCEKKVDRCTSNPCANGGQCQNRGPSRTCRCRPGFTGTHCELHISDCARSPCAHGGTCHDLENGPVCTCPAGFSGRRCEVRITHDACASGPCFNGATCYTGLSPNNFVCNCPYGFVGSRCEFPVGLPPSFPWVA
Procedure: as §1

[5] = target: T1, human DLL1; assay: binding ELISA on coated recombinant human DLL1, OD 405 nm
Procedure: (§2) Absence of binding to homologous ligands human DLL1 and human Jagged-1 is assessed via solid phase binding assay (ELISA). In brief, human DLL1 (Alexis, San Diego, Calif., USA) and human Jagged-1 (Alexis, San Diego, Calif., USA) are coated overnight at 4° C. at 1 μg/mL in a 96-well MaxiSorp plate (Nunc, Wiesbaden, Germany). Wells are blocked with a casein solution (1% in PBS). VHHs are applied as dilution series and binding is detected using a mouse anti-myc (Roche) and an anti-mouse-AP conjugate (Sigma, St. Louis, Mo., USA).

[6] = target: T4, human Jagged-1 (human, UniProt P78504 34-1067, limits assumed); assay: binding ELISA on coated recombinant human Jagged-1, OD 405 nm
T4 construct: also called hJagged-1; hJAG1
Procedure: as §2

[7] = target: T5, human DLL4, full length, overexpressed on cells (human, UniProt Q9NR61 27-685); assay: cell-based or functional assay
[8] = target: T5, human DLL4, full length, overexpressed …; assay: FMAT, hNotch1-Fc on CHO-hDLL4, -HSA
[9] = target: T6, mouse DLL4, full length, overexpressed on CHO cells (mouse, UniProt Q9JI71 27-686); assay: FMAT, hNotch1-Fc on CHO-mDLL4, -HSA
T6 construct: whole, on cells; also called mDLL4; CHO-mDLL4
T6 sequence (Q9JI71 27-686): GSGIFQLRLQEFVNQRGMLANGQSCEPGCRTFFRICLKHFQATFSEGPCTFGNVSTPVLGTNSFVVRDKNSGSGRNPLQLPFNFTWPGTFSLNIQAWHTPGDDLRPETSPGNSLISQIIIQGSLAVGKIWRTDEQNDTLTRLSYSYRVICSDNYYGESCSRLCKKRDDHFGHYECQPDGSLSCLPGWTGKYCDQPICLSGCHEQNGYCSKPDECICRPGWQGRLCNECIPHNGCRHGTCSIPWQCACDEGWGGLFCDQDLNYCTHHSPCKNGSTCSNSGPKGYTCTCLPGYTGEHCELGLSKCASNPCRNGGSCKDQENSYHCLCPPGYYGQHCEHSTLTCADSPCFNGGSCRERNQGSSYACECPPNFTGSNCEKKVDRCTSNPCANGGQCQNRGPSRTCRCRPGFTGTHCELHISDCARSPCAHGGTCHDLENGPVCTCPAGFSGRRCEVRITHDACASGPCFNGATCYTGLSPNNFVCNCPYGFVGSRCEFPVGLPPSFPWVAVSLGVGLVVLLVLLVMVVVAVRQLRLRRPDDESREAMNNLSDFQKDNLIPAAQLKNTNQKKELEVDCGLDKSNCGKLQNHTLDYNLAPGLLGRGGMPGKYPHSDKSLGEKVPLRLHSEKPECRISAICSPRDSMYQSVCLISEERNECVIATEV

[10] = target: T5, human DLL4, full length, overexpressed …; assay: FMAT, hNotch1-Fc on CHO-hDLL4, +25 uM HSA
[11] = target: T6, mouse DLL4, full length, overexpressed …; assay: FMAT, hNotch1-Fc on CHO-mDLL4, +25 uM HSA
[12] = target: T7, recombinant human VEGF165 (human, UniProt P15692-4 27-191, biotinylated in the competition assays); assay: AlphaScreen, hVEGF165/hVEGFR1-Fc competition, -HSA
T7 construct: Bought protein; also called hVEGF165; rhVEGF165
T7 sequence (P15692 other isoform, or with tags, fused parts or gaps): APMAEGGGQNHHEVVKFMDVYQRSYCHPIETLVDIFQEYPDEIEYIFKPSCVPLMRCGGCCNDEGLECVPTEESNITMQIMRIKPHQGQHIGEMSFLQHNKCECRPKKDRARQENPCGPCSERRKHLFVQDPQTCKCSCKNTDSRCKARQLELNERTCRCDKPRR

[13] = target: T7, recombinant human VEGF165; assay: AlphaScreen, hVEGF165/hVEGFR2-Fc competition, -HSA
[14] = target: T7, recombinant human VEGF165; assay: AlphaScreen, hVEGF165/hVEGFR2-Fc competition, +5 uM HSA
Procedure: These 2 competition assays are also performed after preincubation of the VHHs with 5 μM human serum albumin.

[15] = target: VEGF (used to stimulate HUVEC cells) (UniProt P15692-4 27-191, limits assumed); assay: cell-based or functional assay
VEGF (used to stimulate HUVEC cells), sequence (P15692 other isoform, or with tags, fused parts or gaps limits assumed): as the sequence (P15692 other isoform, or with tags, fused parts or gaps) above

[16] = target: T8, human DLL4 overexpressed on cells (human, UniProt Q9NR61 27-685); assay: competitive FMAT, hNotch1-Fc on CHO-hDLL4
T8 construct: full length human DLL4 on CHO or HEK293 cells; also called CHO-hDLL4; CHO-hDII4

[17] = target: T2, recombinant human DLL4; assay: competition ELISA, biot-hDLL4 to coated hNotch1-Fc
Excerpt: Residual binding of biotinylated human DII4 is detected using horseradish peroxidase (HRP) conjugated extravidin (Sigma, St. Louis, Mo., USA) (FIG. 3 A-C). Human DII4 is biotinylated as described above.

| EC50 [1] [nM] | % inh [2] [%] | IC50 [3] [nM] | binding result [4] | binding result [5] | binding result [6] | IC50, DLL4 mediated reporter assay, +HSA [7] [nM] | % inh [8] [%] | IC50 [8] [nM] | % inh [9] [%] | IC50 [9] [nM] | % inh [10] [%] | IC50 [10] [nM] | % inh [11] [%] | IC50 [11] [nM] | Binder | further results |
| --- | --- | --- | --- | --- | --- | --- | --- | --- | --- | --- | --- | --- | --- | --- | --- | --- |
| – | – | – | – | – | – | 582 | 100 | 44.9 | 100 | 95.3 | 100 | 41.5 | 100 | 103 | VEGFDLLBII012 (bispecific antibody, PEGylated at the Cys at position 15 of the 35 Gly-Ser linker, VEGFBII23B04 - 35GS(Cys15) - DLLBII136C07) EVQLVESGGGLVQTGDSLRLSCEVSGRTFSSYSMGWFRQAQGKEREFVVAISKGGYKYDSVSLEGRFTISKDNAKNTVYLQINSLKPEDTAVYYCASSRAYGSSRLRLADTYEYWGQGTQVTVSSGGGGSGGGGSGGGGCGGGGSGGGGSGGGGSGGGGSEVQLVESGGGLVQPGGSLRLSCAASGFTFGSYDMSWVRRSPGKGPEWVSSINSGGGSTYYADYVKGRFTISRDNAKNTLYLQMNSLKPEDTAVYYCAADRYIWARQGEYWGAYEYDYWGQGTQVTVSS | % inh [12]: 60%; IC50 [12]: 0.27 nM; % inh [13]: 100%; IC50 [13]: 0.19 nM; % inh [14]: 100%; IC50 [14]: 0.22 nM |
| – | – | – | – | – | – | 98.5 | 100 | 12.2 | 100 | 19.3 | 100 | 12.4 | 100 | 23.8 | VEGFDLLBII013 (bispecific antibody, PEGylated at the Cys at position 15 of the 35 Gly-Ser linker, VEGFBII23B04 - 35GS(Cys15) - DLLBII129B05) EVQLVESGGGLVQTGDSLRLSCEVSGRTFSSYSMGWFRQAQGKEREFVVAISKGGYKYDSVSLEGRFTISKDNAKNTVYLQINSLKPEDTAVYYCASSRAYGSSRLRLADTYEYWGQGTQVTVSSGGGGSGGGGSGGGGCGGGGSGGGGSGGGGSGGGGSEVQLVESGGGLVQAGGSLRLSCAASGRTFSSYAMAWYRQAPGKEREYVAAIRWSGGTAYYADSVQGRFTISRDNAKNTVYLQMNSLKPEDTAVYYCANRAPDTRLAPYEYDHWGQGTQVTVSS | % inhibition, VEGF HUVEC proliferation assay, -HSA [15]: 92%; IC50, VEGF HUVEC proliferation assay, -HSA [15]: 0.73 nM; % inh [12]: 62%; IC50 [12]: 0.24 nM; % inh [13]: 100%; IC50 [13]: 0.18 nM; % inh [14]: 100%; IC50 [14]: 0.17 nM |
| – | – | – | – | – | – | 103 | 94 | 6.8 | 100 | 16.4 | 94 | 7.1 | 100 | 17.6 | DLLBII136C07 (VHH, not shown: small tags and cut ends) VHH: EVQLVESGGGLVQPGGSLRLSCAASGFTFGSYDMSWVRRSPGKGPEWVSSINSGGGSTYYADYVKGRFTISRDNAKNTLYLQMNSLKPEDTAVYYCAADRYIWARQGEYWGAYEYDYWGQGTQVTVSS | – |

Further lines, the binder ahead of its results:

| Binder | EC50 [1] [nM] | % inh [2] [%] | IC50 [3] [nM] | binding result [4] | binding result [5] | binding result [6] | IC50, DLL4 mediated reporter assay, +HSA [7] [nM] | % inh [8] [%] | IC50 [8] [nM] | % inh [9] [%] | IC50 [9] [nM] | % inh [10] [%] | IC50 [10] [nM] | % inh [11] [%] | IC50 [11] [nM] | further results |
| --- | --- | --- | --- | --- | --- | --- | --- | --- | --- | --- | --- | --- | --- | --- | --- | --- |
| DLLBII05B11 (VHH, also called DLLBII5B11) VHH: EVQLVESGGGLVQPGGSLRLSCAISGFTLDLHVIGWLRQAPGKEREWVSCISSSDGSTYYADSVKGRFTISRDNAKNTVYLQMNSLKPEDTAVYYCAAPWDSWYCGIGNDYDYWGQGTQVTVSS | 1.8 | 98 | 0.7 | no binding (tested: 2.5e-7 M) | no binding (tested: 2.5e-7 M) | no binding (tested: 2.5e-7 M) | – | – | – | – | – | – | – | – | – | – |
| DLLBII07B05 (VHH, also called DLLBII7B05) VHH: EVQLVESGGGLVQAGGSLRLSCAASGFALDYYAVGWFRQAPGKEREGVSCISSRGGSTFYADSVKGRFTTSRNNAKNTVYLQMNSLKPEDTAVYYCAAHPLQNCCGGSAYASPEAVYEYWGQGTQVTVSS | 7.2 | 84 | 1.1 | no binding (tested: 2.5e-7 M) | no binding (tested: 2.5e-7 M) | no binding (tested: 2.5e-7 M) | – | – | – | – | – | – | – | – | – | – |
| DLLBII08A09 (VHH, also called DLLBII8A09) VHH: EVQLVESGGGLVQPGGSLRLSCAASGFTLDYYNIGWFRQAPGKEREWVSCINSSDGSTYYADSVKGRFTISRDNAKNTVYLQMNSLKPEDTAVYYCAAPFAYYSNLCGVNGYDYWGQGTQVTVSS | 0.9 | 96 | 0.4 | no binding (tested: 2.5e-7 M) | no binding (tested: 2.5e-7 M) | no binding (tested: 2.5e-7 M) | – | – | – | – | – | – | – | – | – | IC50 [16]: 5.5 nM |
| DLLBII129B05 (VHH, not shown: small tags and cut ends) VHH: EVQLVESGGGLVQAGGSLRLSCAASGRTFSSYAMAWYRQAPGKEREYVAAIRWSGGTAYYADSVQGRFTISRDNAKNTVYLQMNSLKPEDTAVYYCANRAPDTRLAPYEYDHWGQGTQVTVSS | – | – | – | – | – | – | 88 | 90 | 3.2 | 100 | 3 | 90 | 4.3 | 100 | 3.7 | – |
| DLLBII6B11 (VHH, also called DLLBII06B1) VHH: EVQLVESEGGLVQAGGSLRLSCAASGSTFSSYAMGWYRQAPGKQRELVAVISNGGITNYPNSVKGRFTISRDNAKNTVYLQMNSLKPEDTAVYYCFYSGSYYYPTDVHEYDYWGQGTQVTVSS | 1.4 | 98 | 0.3 | no binding (tested: 2.5e-7 M) | no binding (tested: 2.5e-7 M) | no binding (tested: 2.5e-7 M) | – | – | – | – | – | – | – | – | – | IC50 [16]: 8.9 nM; IC50 [17]: 1.5 nM |
